Five molecules from patent publication US20230115257A1 (CURIA IP, published 2023) can be followed below.

For assay [1], the target named is T1, SARS-CoV-2 (WIV02 isolate) prefusion stabilized spike trimer protein (SARS-CoV-2 (WIV02 isolate), UniProt P0DTC2 14-1213).
T1 construct: also called WT; SARS-CoV-2 spike trimer
Briefly: Table A: binding pattern against variant spike proteins.

The target in assay [2] is T2, SARS-CoV-2 B.1.1.7 spike protein (SARS-CoV-2 B.1.1.7 (Alpha), UniProt P0DTC2 13-1213).
T2 construct: also called alpha; SARS-CoV-2 B.1.1.7 spike trimer variant
Described as above.

Assay [3] deals with T3, SARS-CoV-2 P.1 spike protein (SARS-CoV-2 P.1 (Gamma), UniProt P0DTC2 13-1213).
T3 construct: also called gamma; SARS-CoV-2 P.1 spike trimer variant
Described as above.

For assay [4], the target named is T4, SARS-CoV-2 B.1.617.2 spike trimer variant (SARS-CoV-2 B.1.617.2 (Delta), UniProt P0DTC2 16-1213).
T4 construct: also called delta; SARS-CoV-2 Delta Spike
The description is as above.

In assay [5] the target is T5, SARS-CoV-2 B.1.1.529 spike trimer variant (SARS-CoV-2 B.1.1.529 (Omicron), UniProt P0DTC2 16-1213).
T5 construct: also called omicron; Omicron B.1.1.529
The description is as above.

For assay [6], the target named is T6, SARS-CoV-2 BA.2 spike trimer variant (SARS-CoV-2 Omicron BA.2, UniProt P0DTC2 16-1213).
T6 construct: also called Omicron BA.2
The assay is described as above.

The target of assay [7] is T7, SARS-CoV-2 Beta (B.1.351) variant prefusion stabilized spike trimer protein (SARS-CoV-2 Beta (B.1.351), UniProt P0DTC2 14-1213).
T7 construct: also called SARS-CoV-2 B.1.351 spike protein; β spike
Put plainly: Table A (reprint): binding pattern against variant spike proteins.

In assay [8] the target is T7, SARS-CoV-2 Beta (B.1.351) variant …. Put plainly: ELISA screens of hybridomas on WT, Alpha, Beta and Gamma spike. (In general: In an ELISA, binding on a coated surface is turned into a signal by an enzyme label.)

B1: 3-P17-A (antibody, V domains shown)
VH: QVQLKQSGPGLVQPSQSLSITCTVSGFSLTSYGVHWVRQSPGKGLEWLGVIWSGGITDYNAGFISRLSISKDNSKSQVFFTMNSLQADDTAIYYCARIITTVLDQFADWGQGTLVTVSA
VL: DIVLTQSPASLAVSLGQRATISCRASQSVSTSTYSYIHWYQQKPGQPPKLLIKYASNLESGVPARFSGSGSGTDFTLNIHPVEEEDTATYYCQHSWEIPPTFGAGTKLELK
In the case of B1, the binding result in assay [1], in assay [2], in assay [3], in assay [4], in assay [5] and in assay [6] was “no binding” in each case. Also, the binding result in assay [7] was “binds”.

B2: 4-O14-B (antibody, V domains shown)
VH: QVQLQQPGAELVKPGASVKLSCKASGYAFISHWMHWVRQRPGRGLEWIGRIDPNSSGSKDNEKFRSKATLTVDKPSSTAYMQLSSLTSEDSAVYYCARSPYYSNPYWYFDVWGAGTTVTVSS
VL: EIVLTQSPALMAASPGEKVTITCSVSSSISSSNLHWYQQKSETSPKPWIYGTSNLASGVPVRFSGSGSGTSYSLTITNMEAEDAATYYCQQWSSYPFTFGSGTKLEIK
Consider B2, for which, in assay [8], the binding result was “binds”.

B3: 9-G24-A (antibody, V domains shown)
VH: QVQLQQSGAELVRPGASVKLSCKASGYTFTDYEMHWVKQTPVHGLEWIGVIDPETGDTAYNQKFKDKATLTADKSSSTAYMELRSLTSEDSAVYYCARRRDYGNPYWYFDVWGAGTAVTVSS
VL: EIVLTQSPALMAASPGEKVTITCSASSSISSSNLHWYQQKSGTSPKPWIYGTSNLASGVPVRFSGSGSGTSYSLTISSMEAEDAATYVCQQWSNYPYTFGSGTKLEIK
On to B3, for which the binding result in assay [1], in assay [2], in assay [3], in assay [4], in assay [5] and in assay [6] was “no binding” in each case.

B4: 3-K11-A (antibody, V domains shown)
VH: EVQLQQSGPELVKPGASVKMSCKASGYTFTSYVMHWVKQKPGQGLEWIGYINPYNDGTEYNEKFKGKATLTSDKSSSTAYMELSSLTSEDSAVYHCAREAYRYFDVWGTGTTVTVSS
VL: DIQMTQSPASLSVSVGETVTITCRASENIYSNLAWYQQKQGKYPQLLVYGATNLADGVPSRFSGSGSGTQYFLKINSLQSEDFGSYYCQHFWGIPWTFGGGTKLEIK
In the case of B4, the binding result in assay [1], in assay [2], in assay [3], in assay [4] and in assay [6] was “no binding” each time.

B5: 9-M12-A (antibody, V domains shown)
VH: EVQLVESGGDLVKPGGSLKLSCTASGFTFSSYGMSWVRQTPDKRLEWVTTISSGGGYTYVPDSVKGRFTISRDNAKNTLYLHMSSLKSEDTAMYFCARPLIPTMVEAFDYWGQGTSLTVSS
VL: SIVMTQTPKFLPVSAGDRVTMTCKASQSVGNNVAWYQQKPGQSPKLLIYYASNRYTGVPDRFTGSGSGADFTFTISSVQVEDLAVYFCQQHYSSPFTFGTGTKLEIK
As to B5, the binding result in assay [1], in assay [2], in assay [3], in assay [4], in assay [5] and in assay [6] was “no binding” throughout.
